Assays:
[1] = target: T1, Wild-type human lysozyme (human) (UniProt P61626); experiment: SPR
T1 sequence: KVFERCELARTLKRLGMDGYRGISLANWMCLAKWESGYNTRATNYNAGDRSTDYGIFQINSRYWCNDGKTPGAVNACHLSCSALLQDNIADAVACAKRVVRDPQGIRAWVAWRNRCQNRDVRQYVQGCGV

[2] = target: T1, Wild-type human lysozyme (human); experiment: ITC
Wild-type human lysozyme = Wild-type human lysozyme (Homo sapiens, UniProt P61626); experiment: SPR

B1: cAb-HuL5G (VHH)
VHH: QVQLQESGGGSVQAGGSLRLSCSASGLSTTVMAWFRQAPGKEREGVAAIYTGDGFPYYADSVKGRFTISQDNAKNTVYLQMNSLKPEDTAMYYCAAKTGAFSYGSLWWMSRAYNHWGQGTEVTVSS
Kd [1]: 310 nM
koff [1]: 0.128 s⁻¹
kon [1]: 410000 M⁻¹ s⁻¹
Kd [2]: 2500 nM

B2: cAb-HuL5 (VHH)
VHH: QVQLQESGGGSVQAGGSLRLSCEASGLSTTVMAWFRQAPGKEREGVAAIYTGDGFPYYADSVKGRFTISQDNAKNRMYLQMNSLEPEDTAMYYCAAKTGAFSYGSLWWMSRAYNHWGQGTQVTVSS
Kd (Wild-type human lysozyme): 460 nM
koff (Wild-type human lysozyme): 0.088 ± 0.009 s⁻¹
kon (Wild-type human lysozyme): 190000 M⁻¹ s⁻¹

From paper PMC4612432 (The journal of physical chemistry. B, 2013)
